Measurements reported in patent US7749976.
Marks after values point to notes of the source that are not given here.

B1: GST-PLIP (recombinant murine PLIP fusion protein with N-terminal GST and 6-His tags) (protein)
chain: MAASAWLEAGLARVLFYPTLLYTVFRGRVRGPAHRDWYHRIDHTVLLGALPLKNMTRRLVLDENVRGVITMNEEYETRFLCNTSKEWKKAGVEQLRLSTVDMTGVPTLANLHKGVQFALKYQALGQCVYVHCKAGRSRSATMVAAYLIQVHNWSPEEAIEAIAKIRSHISIRPSQLEVLKEFHKEITARAAKN
MyBP Ser(P)/Tyr(P)
MyBP Ser(P)/Tyr(P), sequence (P02686 whole entry): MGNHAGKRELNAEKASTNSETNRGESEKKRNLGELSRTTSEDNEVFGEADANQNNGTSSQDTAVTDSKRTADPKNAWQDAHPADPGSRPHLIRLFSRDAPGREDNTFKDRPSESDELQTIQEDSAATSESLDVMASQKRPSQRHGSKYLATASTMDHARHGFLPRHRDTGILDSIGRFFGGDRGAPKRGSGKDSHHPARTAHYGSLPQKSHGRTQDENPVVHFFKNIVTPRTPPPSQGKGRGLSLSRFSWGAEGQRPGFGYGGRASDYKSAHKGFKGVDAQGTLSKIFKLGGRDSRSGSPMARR
  Phosphatase activity (mole of phosphate released/min/mol of enzyme): ~0.0^b
MyBP Tyr(P)
MyBP Tyr(P), sequence (P02686 whole entry): as above
  Phosphatase activity (mole of phosphate released/min/mol of enzyme) (mol/(min mol)): 0.1
Casein Ser(P)
  Phosphatase activity (mole of phosphate released/min/mol of enzyme): ~0.0^b
  Phosphatase activity (mole of phosphate released/min/mol of enzyme) (mol/(min mol)): 0.2

B2: TC-PTP (protein)
chain: MPTTIEREFEELDTQRRWQPLYLEIRNESHDYPHRVAKFPENRNRNRYRDVSPYDHSRVKLQNAENDYINASLVDIEEAQRSYILTQGPLPNTCCHFWLMVWQQKTKAVVMLNRIVEKESVKCAQYWPTDDQEMLFKETGFSVKLLSEDVKSYYTVHLLQLENINSGETRTISHFHYTTWPDFGVPESPASFLNFLFKVRESGSLNPDHGPAVIHCSAGIGRSGTFSLVDTCLVLMEKGDDINIKQVLLNMRKYRMGLIQTPDQLRFSYMAIIEGAKCIKGDSSIQKRWKELSKEDLSPAFDHSPNKIMTEKYN
MyBP Ser(P)/Tyr(P)
  Phosphatase activity (mole of phosphate released/min/mol of enzyme): ~0.0^b
MyBP Tyr(P)
  Phosphatase activity (mole of phosphate released/min/mol of enzyme) (mol/(min mol)): 195
Casein Ser(P)
  Phosphatase activity (mole of phosphate released/min/mol of enzyme): ~0.0^b
  Phosphatase activity (mole of phosphate released/min/mol of enzyme) (mol/(min mol)): 1440

B3: VHR (protein)
chain: MSGSFELSVQDLNDLLSDGSGCYSLPSQPCNEVTPRIYVGNASVAQDIPKLQKLGITHVLNAAEGRSFMHVNTNANFYKDSGITYLGIKANDTQEFNLSAYFERAADFIDQALAQKNGRVLVHCREGYSRSPTLVIAYLMMRQKMDVKSALSIVRQNREIGPNDGFLAQLCQLNDRLAKEGKLKP
MyBP Ser(P)/Tyr(P)
  Phosphatase activity (mole of phosphate released/min/mol of enzyme): ~0.0^b
MyBP Tyr(P)
  Phosphatase activity (mole of phosphate released/min/mol of enzyme) (mol/(min mol)): 0.5
Casein Ser(P)
  Phosphatase activity (mole of phosphate released/min/mol of enzyme): ~0.0^b
  Phosphatase activity (mole of phosphate released/min/mol of enzyme) (mol/(min mol)): 1.8
